Values of other authors as cited in article PMC11811815.

Molecular target: Usp18 (Mus musculus) (UniProt Q9WTV6)
UniProt Q9WTV6, sequence (Q9WTV6 whole entry): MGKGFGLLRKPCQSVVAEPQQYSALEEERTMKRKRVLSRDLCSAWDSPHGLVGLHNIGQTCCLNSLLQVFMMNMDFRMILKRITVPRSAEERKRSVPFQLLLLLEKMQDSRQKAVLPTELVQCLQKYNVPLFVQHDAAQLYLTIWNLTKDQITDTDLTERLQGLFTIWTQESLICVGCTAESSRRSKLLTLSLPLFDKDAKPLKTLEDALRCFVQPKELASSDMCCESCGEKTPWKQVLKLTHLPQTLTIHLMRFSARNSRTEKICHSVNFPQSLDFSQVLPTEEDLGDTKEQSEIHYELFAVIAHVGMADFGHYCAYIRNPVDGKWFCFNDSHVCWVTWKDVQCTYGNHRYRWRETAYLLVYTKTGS

Kd: 1300 nM
Substance: Isg15 (from UniProt Q64339)
